Patent US20180327473A1 (published 2018)

T1: human alpha fetoprotein (hAFP158) peptide on HLA-A2 (human)
T1 peptide: FMNKFIYEI


Target: T1, human alpha fetoprotein (hAFP158) …
Assay: multimer staining

Binder	binding result
mTCR-38 (TCR, V domains shown) Valpha: QQKVQQSPESLIVPEGGMASLNCTSSDRNVDYFWWYRQHSGKSPKMLMSIFSNGEKEEGRFTVHLNKASLHTSLHIRDSQPSDSALYLCAATLTGGYKVVFGSGTRLLVSP Vbeta: EAAVTQSPRNKVTVTGGNVTLSCRQTNSHNYMYWYRQDTGHGLRLIHYSYGAGNLQIGDVPDGYKATRTTQEDFFLLLELASPSQTSLYFCASSDAGTSQNTLYFGAGTRLSVL	recognises
mTCR-3 (TCR, V domains shown) Valpha: QQKVQQSPESLIVPEGGMASLNCTSSDRNVDYFWWYRQHSGKSPKMLMSIFSNGEKEEGRFTVHLNKASLHTSLHIRDSQPSDSALYLCAASMAGGYKVVFGSGTRLLVSP Vbeta: EAAVTQSPRNKVTVTGGNVTLSCRQTNSHNYMYWYRQDTGHGLRLIHYSYGAGNLQIGDVPDGYKATRTTQEDFFLLLELASPSQTSLYFCASSDAGTAQNTLYFGAGTRLSVL	recognises
mTCR-8 (TCR, V domains shown) Valpha: QQKVQQSPESLIVPEGGMASLNCTSSDRNVDYFWWYRQHSGKSPKMLMSIFSNGEKEEGRFTVHLNKASLHTSLHIRDSQPSDSALYLCAASISGGYKVVFGSGTRLLVSP Vbeta: EAAVTQSPRNKVTVTGGNVTLSCRQTNSHNYMYWYRQDTGHGLRLIHYSYGAGNLQIGDVPDGYKATRTTQEDFFLLLELASPSQTSLYFCASSDAGTSQNTLYFGAGTRLSVL	recognises
mTCR-11 (TCR, V domains shown) Valpha: QQKVQQSPESLIVPEGGMASLNCTSSDRNVDYFWWYRQHSGKSPKMLMSIFSNGEKEEGRFTVHLNKASLHTSLHIRDSQPSDSALYLCAASKTGGYKVVFGSGTRLLVSP Vbeta: EAAVTQSPRNKVTVTGGNVTLSCRQTNSHNYMYWYRQDTGHGLRLIHYSYGAGNLQIGDVPDGYKATRTTQEDFFLLLELASPSQTSLYFCASSDAGTSQNTLYFGAGTRLSVL	recognises
mTCR-2 (TCR, V domains shown) Valpha: QQKVQQSPESLIVPEGGMASLNCTSSDRNVDYFWWYRQHSGKSPKMLMSIFSNGEKEEGRFTVHLNKASLHTSLHIRDSQPSDSALYLCAASTVNAYKVIFGKGTHLHVLP Vbeta: EAAVTQSPRNKVTVTGGNVTLSCRQTNSHNYMYWYRQDTGHGLRLIHYSYGAGNLQIGDVPDGYKATRTTQEDFFLLLELASPSQTSLYFCASSDAGTSQNTLYFGAGTRLSVL	recognises

Continued, values first:

binding result	Binder
recognises	mTCR-1 (TCR, V domains shown) Valpha: QQKVQQSPESLIVPEGGMASLNCTSSDRNVDYFWWYRQHSGKSPKMLMSIFSNGEKEEGRFTVHLNKASLHTSLHIRDSQPSDSALYLCAASITNAYKVIFGKGTHLHVLP Vbeta: EAAVTQSPRNKVTVTGGNVTLSCRQTNSHNYMYWYRQDTGHGLRLIHYSYGAGNLQIGDVPDGYKATRTTQEDFFLLLELASPSQTSLYFCASSDAGTSQNTLYFGAGTRLSVL
recognises	mTCR-10 (TCR, V domains shown) Valpha: QQKVQQSPESLIVPEGGMASLNCTSSDRNVDYFWWYRQHSGKSPKMLMSIFSNGEKEEGRFTVHLNKASLHTSLHIRDSQPSDSALYLCAASIVGGYKVVFGSGTRLLVSP Vbeta: EAAVTQSPRNKVTVTGGNVTLSCRQTNSHNYMYWYRQDTGHGLRLIHYSYGAGNLQIGDVPDGYKATRTTQEDFFLLLELASPSQTSLYFCASSDHGTGQNTLYFGAGTRLSVL
recognises	mTCR-6 (TCR, V domains shown) Valpha: QQKVQQSPESLIVPEGGMASLNCTSSDRNVDYFWWYRQHSGKSPKMLMSIFSNGEKEEGRFTVHLNKASLHTSLHIRDSQPSDSALYLCAASMINAYKVIFGKGTHLHVLP Vbeta: EAAVTQSPRNKVTVTGGNVTLSCRQTNSHNYMYWYRQDTGHGLRLIHYSYGAGNLQIGDVPDGYKATRTTQEDFFLLLELASPSQTSLYFCASSDAGVSQNTLYFGAGTRLSVL
recognises	mTCR-17 (TCR, V domains shown) Valpha: QQKVQQSPESLIVPEGGMASLNCTSSDRNVDYFWWYRQHSGKSPKMLMSIFSNGEKEEGRFTVHLNKASLHTSLHIRDSQPSDSALYLCAASMTGGYKVVFGSGTRLLVSP Vbeta: EAAVTQSPRNKVTVTGGNVTLSCRQTNSHNYMYWYRQDTGHGLRLIHYSYGAGNLQIGDVPDGYKATRTTQEDFFLLLELASPSQTSLYFCASSDAGTSQNTLYFGAGTRLSVL
